Laboratory results published in publication PMC5551564 (The Journal of Experimental Medicine, 2017).

Target: T1, human IL-17RE (Thr155-Ser451), soluble form (human, UniProt Q8NFR9 155-451)
T1 sequence (looked up): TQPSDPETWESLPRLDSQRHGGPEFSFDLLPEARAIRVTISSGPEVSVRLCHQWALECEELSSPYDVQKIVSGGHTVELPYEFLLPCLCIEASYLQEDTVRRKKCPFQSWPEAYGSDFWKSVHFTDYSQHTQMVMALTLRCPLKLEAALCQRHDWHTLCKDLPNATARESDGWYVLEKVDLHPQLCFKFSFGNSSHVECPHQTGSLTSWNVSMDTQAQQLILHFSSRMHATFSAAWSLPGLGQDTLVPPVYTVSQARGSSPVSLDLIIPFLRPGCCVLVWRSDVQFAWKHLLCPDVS
Test: SEC

binding result: binds
B1: human IL-17c (residues His19-Val197), soluble form (ligand, UniProt Q9P0M4 19-197, looked up)
chain: HHDPSLRGHPHSHGTPHCYSAEELPLGQAPPHLLARGAKWGQALPVALVSSLEAASHRGRHERPSATTQCPVLRPEEVLEADTHQRSISPWRYRVDTDEDRYPQKLAFAECLCRGCIDARTGRETAALNSVRLLQSLLVLRRRPCSRDGSGLPTPGAFAFHTEFIHVPVGCTCVLPRSV
